Measured values from article PMC13227277, “Targeting CIRP and IL-6R-mediated microglial inflammation to improve outcomes in intracerebral hemorrhage” (Journal of Advanced Research, 2025).

Columns and labels:
STAT3 = STAT3 phosphorylation following CIRP and IL-6R interaction, western blot; type: cell-based; details: n = 6
Procedure: Cells were divided into control and test groups. For transfection, solution A (plasmid diluted in Opti-MEM) and solution B (Lipofectamine 2000, Life Technologies, USA, diluted in Opti-MEM) were mixed at a 1:2 plasmid-to-lipofectamine ratio. After 6 h, the medium was replaced with DMEM, and GFP fluorescence was observed 24–48 h post-transfection to assess efficiency. Cells were divided into PBS, IL-6R, and CIRP (1 μg/mL for 24 h) groups for further analysis.
Cells were washed twice with PBS, lysed, and sonicated. After a 30-minute rest to ensure thorough lysis, the homogenate was centrifuged at 12,000 rpm at 4 °C for 15 min. The supernatant was collected for protein quantification using the BCA method. Samples were prepared at a concentration of 2 μg/μL, and 15 μL per well was loaded for gel electrophoresis. Proteins were transferred to membranes using a wet transfer method and blocked with 5 % non-fat milk. […] Membranes were incubated with primary antibodies overnight at 4 °C, followed by incubation with secondary antibodies (GAR-HRP, BIOSHARP; GAM-HRP, Jackson) at room temperature for 2 h. Membranes were washed three times with TBST and developed using a chemiluminescent substrate.

[1] = test system: Cirbp^−/− microglia vs WT microglia; test: TNF-α and IL-6 release, WT and Cirbp^−/− microglia with rmCIRP, ELISA; type: cell-based, mouse; details: CIRP treatment, 24 h, n = 3–4
Procedure: ELISA was used to quantify CIRP, MD2, IL-6, and TNF-α concentrations in blood and cerebrospinal fluid samples. Samples were processed and stored under standardized conditions to preserve protein integrity. Each target protein was measured using commercial ELISA kits, following the manufacturer’s instructions: Mouse CIRBP ELISA Kit (CSB-EL005440MO, CUSABIO), Mouse TNF-α ELISA Kit (EK282, Lianke Bio), Mouse IL-6 ELISA Kit (CSB-E04639m, CUSABIO), and […].
Primary cortical neurons were isolated from embryonic day 16–18 (E16–E18) C57BL/6 mouse embryos as previously described, and cultured in Neurobasal medium supplemented with B27 and GlutaMAX (Gibco).Primary microglial cells were isolated from the cortices of neonatal (day 1) C57BL/6J mice. After disinfection with 75 % ethanol, the skin and skull were removed, and the brains were placed in ice-cold HBSS. The meninges were peeled off, the cortex was collected, and the hippocampus was discarded. Tissues were digested with 0.25 % trypsin at 37 °C for 12 min, centrifuged at 1200 rpm for 5 min, and resuspended in complete medium. […]
RBCs were isolated via density gradient centrifugation and labeled with CFSE before being stereotactically injected into the right striatum. […] Cell viability was assessed using a Fixable Viability Dye, and flow cytometric analysis was subsequently performed. […]

neurons = test: Neurons co-cultured with CIRP-treated microglial supernatant (CCK-8, immunofluorescence); type: cell-based, mouse
Procedure: Brain tissues were fixed in paraformaldehyde, dehydrated, and sectioned at 30 µm using a microtome (CM1900UV, Leica, Germany). Sections were floated onto glass slides and left overnight at room temperature. For cultured cells, after discarding the medium, cells were washed twice with PBS, fixed with precooled 4 % PFA at 4 °C for 10 min, and washed three times with PBS (10 min each) on a shaker. Cells were permeabilized with 0.3 % Triton X-100 in PBS for 20 min, blocked with 5 % donkey serum for 1 h, and incubated overnight at 4 °C with primary antibodies (Iba-1, Rabbit polyclonal, Wako; NeuN, Millipore; GFAP, CST; MBP, Abcam; SMI32, Millipore). The next day, sections were brought to room temperature, washed three times with PBST (PBS + Tween-20), and incubated with secondary antibodies for 1 h in the dark. […] Fluorescence was visualized using a DM4000B microscope and images were captured with a Leica TCS SP8 confocal microscope. […]
To mimic ischemic conditions, neurons at DIV7 were subjected to OGD. […] The supernatants were collected for subsequent CIRP quantification. […]
Microglia were exposed to 1, 10 100 μM concentrations of TCC or TC and PBS respectively for 24 h, and cell viability was measured. […] Cell viability was assessed using the Cell Counting Kit-8 (C0038, Beyotime) according to the manufacturer’s protocol. Absorbance at 450 nm was measured to determine cell viability.

[2] = test system: IL-6Rα/STAT3 pathway in microglia; test: IL-6Rα expression and p-STAT3 in CIRP-stimulated microglia; type: cell-based, mouse; details: CIRP stimulation with or without TCC
Procedure: Brain tissues were fixed in paraformaldehyde, dehydrated, and sectioned at 30 µm using a microtome (CM1900UV, Leica, Germany). Sections were floated onto glass slides and left overnight at room temperature. For cultured cells, after discarding the medium, cells were washed twice with PBS, fixed with precooled 4 % PFA at 4 °C for 10 min, and washed three times with PBS (10 min each) on a shaker. Cells were permeabilized with 0.3 % Triton X-100 in PBS for 20 min, blocked with 5 % donkey serum for 1 h, and incubated overnight at 4 °C with primary antibodies (Iba-1, Rabbit polyclonal, Wako; NeuN, Millipore; GFAP, CST; MBP, Abcam; SMI32, Millipore). The next day, sections were brought to room temperature, washed three times with PBST (PBS + Tween-20), and incubated with secondary antibodies for 1 h in the dark. After three more PBST washes, samples were mounted with DAPI-containing medium and sealed. Fluorescence was visualized using a DM4000B microscope and images were captured with a Leica TCS SP8 confocal microscope. […]
Brain tissue adjacent to the hemorrhagic striatum was homogenized in lysis buffer with protease inhibitors. […] The supernatant was collected for protein quantification using the BCA method. […]

IL-6Rα = details: macrophages; cited from earlier work
Excerpt: Previous studies have shown that MD2 binds to a specific 15-amino acid segment of CIRP with high affinity, promoting inflammation. To target this interaction, we designed the peptides TCC and TC using macromolecular docking techniques, with SPR confirming that TCC reduced the binding affinity of CIRP to IL-6Rα.

B1: recombinant human CIRP (cold-inducible RNA-binding protein) (natural protein, UniProt Q14011 1-172, looked up)
chain: MASDEGKLFVGGLSFDTNEQSLEQVFSKYGQISEVVVVKDRETQRSRGFGFVTFENIDDAKDAMMAMNGKSVDGRQIRVDQAGKSSDNRSRGYRGGSAGGRGFFRGGRGRGRGFSRGGGDRGYGGNRFESRSGGYGGSRDYYSSRSQSGGYSDRSSGGSYRDSYDSYATHNE
notes: UniProtKB Q14011 is printed for the docking; also called rhCIRP; human CIRBP; source: recombinant
phosphorylation of STAT3 (STAT3): induced phosphorylation of the STAT3
IL-6 and TNF-α secretion, Cirbp^−/− vs WT microglia [1]: marked decrease in the secretion of both IL-6 and TNF-α levels
neuronal morphology and axonal integrity (neurons; 24-hour co-culture with microglial supernatant, immunofluorescence, n = 4–6): altered morphology and reduced axonal integrity
neuronal viability (neurons; microglial supernatant following CIRP with or without TCC, CCK-8, 24 h, n = 3): impaired neuronal viability
IL-6Rα expression on microglia ([2]; immunofluorescence): IL-6Rα expression on the microglial membrane significantly increased
p-STAT3 level in microglia ([2]; western blot, n = 6): increase in the p-STAT3/GAPDH ratio compared to the PBS control group
IL-6Rα as receptor for CIRP (IL-6Rα): high-affinity receptor for CIRP in macrophages
